In publication PMC5809386, “Cadherin-26 (CDH26) regulates airway epithelial cell cytoskeletal structure and polarity” (Cell Discovery, 2018):

Biological target: the molecule itself
Assay: SEC; analytical size exclusion chromatography of recombinant CDH26A, 'in cell lysates'; details in the Supplementary Information

B1: full-length recombinant CDH26A (cadherin-26, transcript variant A) (natural protein, human, UniProt Q8IXH8-4 28-832, looked up)
chain: DSVQQETDDLTKQTKEKIYQPLRRSKRRWVITTLELEEEDPGPFPKLIGELFNNMSYNMSLMYLISGPGVDEYPEIGLFSLEDHENGRIYVHRPVDREMTPSFTVYFDVVERSTGKIVDTSLIFNIRISDVNDHAPQFPEKEFNITVQENQSAGQPIFQMLAVDLDEENTPNSQVLYFLISQTPLLKESGFRVDRLSGEIRLSGCLDYETAPQFTLLIRARDCGEPSLSSTTTVHVDVQEGNNHRPAFTQENYKVQIPEGRASQGVLRLLVQDRDSPFTSAWRAKFNILHGNEEGHFDISTDPETNEGILNVIKPLDYETRPAQSLIIVVENEERLVFCERGKLQPPRKAAASATVSVQVTDANDPPAFHPQSFIVNKEEGARPGTLLGTFNAMDPDSQIRYELVHDPANWVSVDKNSGVVITVEPIDRESPHVNNSFYVIIIHAVDDGFPPQTATGTLMLFLSDINDNVPTLRPRSRYMEVCESAVHEPLHIEAEDPDLEPFSDPFTFELDNTWGNAEDTWKLGRNWGQSVELLTLRSLPRGNYLVPLFIGDKQGLSQKQTVHVRICPCASGLTCVELADAEVGLHVGALFPVCAAFVALAVALLFLLRCYFVLEPKRHGCSVSNDEGHQTLVMYNAESKGTSAQTWSDVEGQRPALLICTAAAGPTQGVKDLEEVPPSAASQSAQARCALGSWGYGKPFEPRSVKNIHSTPAYPDATMHRQLLAPVEGRMAETLNQKLHVANVLEDDPGYLPHVYSEEGECGGAPSLSSLASLEQELQPDLLDSLGSKATPFEEIYSESGVPS
notes: cadherin-26 (CDH26), human, product of transcript variant A (NM_177980; 18 exons; predicted protein molecular weight 92.4 kDa); full-length recombinant protein; also called rCDH26A; source: purified by the University of North Carolina Protein Expression and Purification Core Facility; for the analytical SEC 'in cell lysates'
B1: binds.
